Patent US20230159649A1, “METHODS AND COMBINATIONS FOR DUAL TARGETING OF TNF FAMILY MEMBERS” (La Jolla Institute for Immunology, priority 2020, published 2023)
Entries after “also recorded” stand apart in the source; their conditions may differ.

How the values were obtained:
airways of naïve mice [1] = experiment: Injection of recombinant LIGHT / TL1A into the airways of naïve mice: airway remodeling; type: in vivo, mouse; conditions: 10 μg intratracheally on two consecutive days, day 3
[2] = system: normal human bronchial epithelial cells (HBE); experiment: Human bronchial epithelial cells (HBE) stimulated with rLIGHT or rTL1A; type: cell-based; conditions: for periostin and TSLP expression (IF staining): 48 hrs
Description: HBE were stimulated with rLIGHT without (black bars) or with (gray bars) budesonide. Data are mean fold increase in mRNA over unstimulated cells after 3 days, measured by RT-PCR. Steroid sensitivity was arbitrarily set at >75% inhibition of the LIGHT-induced response, indicated to the left of the thick dotted lines.
HBE were stimulated with rLIGHT (left) or rTL1A (right) for 48 hrs and expression of periostin and TSLP examined by IF staining.

[3] = system: human airway fibroblasts (HAF); experiment: Human airway fibroblasts (HAF) stimulated with rLIGHT or rTL1A with or without TGF-β; type: cell-based
Description: FIG. 9A-FIG. 9D illustrate LIGHT and TL1A induce inflammatory and remodeling activity in human airway fibroblasts (HAF). HAF were stimulated with rLIGHT or rTL1A with or without TGF-β. (FIG. 9A) Proliferation (left, thymidine incorporation) or αSMA mRNA (right) induced by LIGHT, TGF-β or both. (FIG. 9B) mRNA for select genes induced by LIGHT. (FIG. 9C) Collagen 13 and periostin protein (IF stain; DAPI is used for […]) and mRNA induced by TL1A. (FIG. 9D) Proliferation (left, thymidine incorporation) and αSMA mRNA (right) induced by TL1A, TGF-β, or their combination. Data individual cultures or means of triplicates. mRNA either fold increase over unstimulated cells or relative to GAPDH.
The inventors compare rTL1A to rLIGHT, titrating each molecule (5-100 ng/ml, their optimal dose range, see (60, 69)). The inventors perform kinetic analyses over 3 days (e.g. 4, 24, 48, 72 hr) and compare data from 4-6 individual cell populations. The inventors initially gain data with normal HAF. […] The inventors additionally have shown that rTL1A can promote activities in HAF that might overlap with, but also be distinct from, LIGHT (FIGS. 9C and 9D).

lung fibroblasts = experiment: Lung fibroblasts stimulated with rTL1A or rLIGHT; type: cell-based
airways of naïve mice [4] = experiment: Injection of recombinant LIGHT / TL1A into the airways of naïve mice: airway remodeling; type: in vivo, mouse; conditions: for airway remodeling (accumulation of collagen, trichrome): 10 μg intratracheally on two consecutive days, day 3, rLIGHT in DR3−/− mice, rTL1A in LIGHT−/− mice; for remodeling in mice lacking T cells and ILCs: RAG and RAGγc−/− mice; for fibrosis and remodeling after injection of the recombinant protein alone (collagen, αSMA / smooth muscle, airway hyperresponsiveness): naïve mice, into the airways (or skin)
Experimental: Naïve mice were injected with PBS or 10 μg rLIGHT or rTL1A intratracheally on two consecutive days. On day 3, accumulation of collagen was analyzed in the airways with trichrome staining. (FIG. 3A) rLIGHT was injected into DR3−/− mice, or rTL1A into LIGHT−/− mice. (FIG. 3B) rLIGHT was combined with rTL1A (5 μg each), and the extent of collagen deposition scored as well as the extent of inflammation scored. (FIG. 3C) rLIGHT and rTL1A were injected into RAG−/− mice.
The inventors furthered these observations by testing whether LIGHT and TL1A could induce fibrosis and remodeling independently of other inflammatory activity, and of each other, by injecting the recombinant proteins into naïve mice. […] Moreover, the effects of LIGHT and TL1A were not reliant on the other cytokine shown by injection of the proteins into the respective knockout animals.

[5] = system: normal human epidermal keratinocytes; experiment: Human epidermal keratinocytes stimulated with rLIGHT or rTL1A; type: cell-based; conditions: for NF-κB activation (p-p65/RelA): keratinocytes, 25 ng/ml rTL1A or PBS
Experimental: FIG. 2A-FIG. 2C illustrate LTβR, HVEM, and DR3 are co-expressed or active in lung epithelial cells and fibroblasts, and keratinocytes and dermal fibroblasts. Cultured normal human bronchial epithelial cells and lung fibroblasts, and epidermal keratinocytes and dermal fibroblasts, were stained for expression of (FIG. 2A) LTβR and HVEM, (FIG. 2B) DR3 (isotype controls, gray), or (FIG. 2C) p-p65/RelA NF-κB after culture with 25 ng/ml rTL1A or PBS. Data representative of 2-4 experiments each.
Experimental Design: 1.1. LIGHT and TL1A co-operate to promote hyperplasia and inflammatory features in human keratinocytes: Firstly, the inventors test how signaling from LIGHT and TL1A directly regulate keratinocytes in vitro. Studies are performed with titrated doses of rLIGHT or rTL1A (0.1-100 ng/ml) vs. PBS, added to normal human epidermal keratinocytes from a minimum of 4 donors (obtained from Lonza) with kinetic analyses, as described previously (7, 8). LIGHT and TL1A have maximal activity in the range 20-100 ng/ml, similar to IL-13 or IL-17. […] The inventors control for specificity with siRNA knockdown of DR3, and then determine synergistic or additive activities, cross-titrating rLIGHT together with rTL1A and measure the extent of cell division and growth. The inventors also test if co-operation is at the level of the receptors (e.g. TL1A enhances expression of the LIGHT receptors).

skin of naïve mice = experiment: Subcutaneous / intradermal injection of recombinant LIGHT into mice: skin fibrosis and inflammation; type: in vivo, mouse
Description: Masson trichrome (collagen), alpha Smooth muscle actin (αSMA) and TSLP immunofluorescent staining of skin sections. The data is representative of 6 to 10 mice per group.
Diseases such as atopic dermatitis (AD) and psoriasis present with extensive tissue remodeling, features shared with diseases of the lungs, such as severe asthma. The inventors have shown that a genetic deficiency in the TNF superfamily molecule LIGHT (TNFSF14, CD258), and blocking LIGHT binding to its receptors, reduced remodeling in the lungs in mouse models of severe asthma and systemic sclerosis (1, 2). […] LIGHT interacts with the TNF superfamily receptors HVEM (herpesvirus entry mediator, TNFRSF14) and LTβR (lymphotoxin beta receptor, TNFRSF3), and TL1A with DR3 (TNFRSF25) (4-6). The studies disclosed herein investigate the combination use of LIGHT and TL1A to control skin tissue remodeling relevant to AD and psoriasis, directly driving deregulated activity in keratinocytes and dermal fibroblasts. In support, the inventors have reported that LIGHT-deficient mice were protected from developing skin inflammation in models of scleroderma (7) and allergen-induced AD (8). […] The inventors have observed that the absence of TL1A/DR3 interactions also markedly limits disease in the same models of AD and psoriasis, and that keratinocytes and fibroblasts co-express DR3 together with the receptors for LIGHT. The inventors determine that LIGHT and TL1A are effectors of skin pathology through driving epidermal hyperplasia and remodeling molecules such as collagen, periostin, and alpha smooth muscle actin in keratinocytes and/or fibroblasts. Through production of other factors such as TSLP, IL-33, and chemokines in these structural cells, LIGHT and TL1A maintain disease through orchestrating immune inflammatory cells in the skin.

dermal fibroblasts = experiment: Dermal fibroblasts stimulated with rLIGHT; type: cell-based, human; conditions: preliminary studies
Description: LIGHT and TL1A synergistic in driving proliferation and inflammatory activity in dermal fibroblasts: The inventors determine inflammatory events that are triggered by LIGHT and TL1A in normal human dermal fibroblasts, using cells from a minimum of 4 donors, with kinetic analyses. The inventors find that both LIGHT and TL1A induce fibroblast proliferation, and may have differential abilities to induce myofibroblast differentiation. […] The inventors also test a range of inflammatory factors relevant to AD or psoriasis that have receptors on fibroblasts (e.g. LIGHT, IL-13, TGF-β, FGF, TNF, IL-17) to determine if they can promote DR3.

rTL1A: recombinant TL1A (TNFSF15) protein [reference compound]
αSMA expression in airways (airways of naïve mice [1]): upregulated | periostin and TSLP expression (IF staining) [2]: promotes fibrotic activity | periostin and TSLP expression (IF staining) ([2]; listed as TL1A): upregulated | collagen 13 and periostin protein and mRNA [3]: promoting collagen 13 and periostin | proliferation of HAF (thymidine incorporation) ([3]; protein alone): induced proliferation | proliferation of HAF in combination with TGF-β ([3]; with TGF-β): augmented by TGF-β | αSMA mRNA in combination with TGF-β ([3]; with TGF-β): enhanced TGF-β driven αSMA | periostin and collagen in lung fibroblasts (lung fibroblasts; protein alone): induced periostin and collagen | proliferation of lung fibroblasts (lung fibroblasts; protein alone): induced proliferation | αSMA in lung fibroblasts (lung fibroblasts; protein alone): not αSMA | proliferation and αSMA together with TGF (lung fibroblasts; with TGF-α as printed): synergized with TGF-α | airway remodeling (accumulation of collagen, trichrome) (airways of naïve mice [4]): promote airway remodeling | remodeling in mice lacking T cells and ILCs (airways of naïve mice [4]): induced remodeling | fibrosis and remodeling after injection of the recombinant protein alone (collagen, αSMA / smooth muscle, airway hyperresponsiveness) (airways of naïve mice [4]; listed as TL1A): substantial collagen deposition and αSMA accumulation; also recorded: induced a fibroproliferative syndrome | fibrosis and remodeling after injection of the recombinant protein alone (collagen, αSMA / smooth muscle, airway hyperresponsiveness) (airways of naïve mice [4]; listed as recombinant TL1A): rapidly promotes smooth muscle alterations, collagen deposition, and airway hyperresponsiveness | NF-κB activation (p-p65/RelA) [5]: enhanced NF-κB activation | NF-κB activation (p-p65/RelA) ([5]; listed as TL1A): induce NF-κB activation

B1: rLIGHT: recombinant LIGHT (TNFSF14) protein (protein)
chain: DGPAGSWEQLIQERRSHEVNPAAHLTGANSSLTGSGGPLLWETQLGLAFLRGLSYHDGALVVTKAGYYYIYSKVQLGGVGCPLGLASTITHGLYKRTPRYPEELELLVSQQSPCGRATSSSRVWWDSSFLGGVVHLEAGEKVVVRVLDERLVRLRDGTRSYFGAFMV
αSMA expression in airways (airways of naïve mice [1]): upregulated | skin fibrosis and remodeling (trichrome, αSMA, TSLP staining) (skin of naïve mice; WT mice, intradermal injection, 20 μg/mouse vs PBS): induces scleroderma; also recorded: induces skin fibrosis and remodeling | cytokines and chemokines induced in vivo (skin of naïve mice; injected s.c. into mice): induced the cytokines IL-33 and IL-25; also recorded: inducing several chemokines | skin disease features after subcutaneous injection (skin of naïve mice; naïve mice, subcutaneous injection): induced features of AD, scleroderma, and psoriasis | periostin and TSLP expression (IF staining) [2]: upregulated | expression of adhesion molecules, proteinases, cytokines and chemokines (mRNA, RT-PCR), steroid sensitivity ([2]; 3 days, without or with budesonide): induce expression; also recorded: promotes steroid-resistant responses | TSLP, periostin and αSMA expression (dermal fibroblasts): upregulated TSLP, periostin, and αSMA | collagen 13 and periostin protein and mRNA [3]: the former shared with LIGHT but not the latter | myofibroblast differentiation (upregulation of αSMA mRNA) ([3]; protein alone): cannot drive myofibroblast differentiation | proliferation of HAF (thymidine incorporation) ([3]; protein alone): promote proliferation | adhesion molecules, chemokines, cytokines and metalloproteases mRNA ([3]; through the LTβR, siRNA knockdown): induced | chemokines (CCL5, CCL20 CXCL5 CXCL11) in lung fibroblasts (lung fibroblasts): upregulated some chemokines | airway remodeling (accumulation of collagen, trichrome) (airways of naïve mice [4]): promote airway remodeling | remodeling in mice lacking T cells and ILCs (airways of naïve mice [4]): induced remodeling | fibrosis and remodeling after injection of the recombinant protein alone (collagen, αSMA / smooth muscle, airway hyperresponsiveness) (airways of naïve mice [4]): reproduce this fibrotic activity | fibrosis and remodeling after injection of the recombinant protein alone (collagen, αSMA / smooth muscle, airway hyperresponsiveness) (airways of naïve mice [4]; listed as LIGHT): rapidly promotes smooth muscle alterations, collagen deposition, and airway hyperresponsiveness; also recorded: substantial collagen deposition and αSMA accumulation; also recorded: increases the accumulation of collagen and alpha-SMA; also recorded: induced a fibroproliferative syndrome | induction of TSLP and periostin from keratinocytes [5]: induce molecules from keratinocytes | proliferation/hyperplasia of human keratinocytes ([5]; via both HVEM and LTβR): induce proliferation/hyperplasia
